This note sets out measurements from patent publication US20040086941A1 (Takeda / Millennium, published 2004).

Positions of bridges follow the written chain, without caps; N, C: chain ends. No end group written: not given here.

In assay [1] the target is T1, human receptor protein SLT (hSLT) (human, UniProt Q969V1 1-340).
T1 construct: Full-length human SLT expressed in CHO dhfr- cells; also called human SLT; CHO/hSLT cells
The assay is described as follows: radioligand competition; [125I]-labeled MCH(4-19) on membrane fraction (30 ug/ml) of human SLT-expressing CHO cells, filtration. The protocol:
Receptor binding assay was performed using [¹²⁵I]-labeled MCH (4-19) prepared in REFERENCE EXAMPLE 3 using Bolton-Hunter reagent and the cell membrane fraction prepared from human SLT-expressing CHO cells.
The cell membrane fraction prepared from human SLT-expressing CHO cells according to EXAMPLE 6 was diluted at various concentrations with the assay buffer (50 mM Tris-HCl, 5 mM EGTA (ethyleneglycol-bis(aminoethylether) tetraacetic acid), 5 mM magnesium acetate, 0.05% CHAPS, 0.1% BSA (bovine serum albumin), 0.25 mM PMSF (phenylmethylsulfonyl fluoride), 1 μg/ml pepstatin, 20 μg/ml leupeptin, pH 7.4). A 200 μl aliquot of each dilution was then dispensed in a polypropylene testing tube (Falcon, Inc., 2053). Two μl of DMSO and 2 μl of 20 nM [¹²⁵I]-labeled MCH (4-19) were added to the membrane fraction solution to determine the amount of total binding (TB), and 2 μl of a solution of 100 μM MCH in DMSO and 2 μl of […] [¹²⁵I]-labeled MCH (4-19) were added thereto to determine the amount of non-specific binding (NSB). After reaction at 25° C. for 60 minutes, the reaction solution was filtered with suction through a polyethyleneimine-treated glass filter (Whatman Co., GF-F). Following the filtration, the radioactivity of [¹²⁵I]-labeled MCH (4-19) remaining on the filter paper was measured with a γ-counter.
As a result, the IC₅₀ value was approximately 20 nM (FIG. 4). […]
(In a radioligand displacement assay an active substance lowers the binding of a labelled ligand.)

The target in assay [2] is T1, human receptor protein SLT (hSLT). Put plainly: cell-based or functional assay.

T1 sequence (Q969V1 whole entry): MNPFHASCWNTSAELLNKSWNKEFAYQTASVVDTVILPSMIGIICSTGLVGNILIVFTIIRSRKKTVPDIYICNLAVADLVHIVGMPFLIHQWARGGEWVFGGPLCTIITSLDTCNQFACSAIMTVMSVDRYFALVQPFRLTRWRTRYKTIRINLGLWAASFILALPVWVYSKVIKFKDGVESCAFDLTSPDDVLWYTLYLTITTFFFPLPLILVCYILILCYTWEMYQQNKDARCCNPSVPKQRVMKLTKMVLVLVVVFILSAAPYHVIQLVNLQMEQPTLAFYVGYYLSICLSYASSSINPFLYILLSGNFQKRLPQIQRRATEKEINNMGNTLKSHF

B1: Des-[Asp1, Phe2, Asp3]-MCH (MCH(4-19)) (peptide)
peptide: MLRCMLGRVYRPCWQV-OH
modifications: disulfide 4-13; N-terminus assumed
SMILES: CSCC[C@@H]1NC(=O)[C@@H](NC(=O)[C@H](CCCNC(=N)N)NC(=O)[C@H](CC(C)C)NC(=O)[C@@H](N)CCSC)CSSC[C@@H](C(=O)N[C@@H](Cc2c[nH]c3ccccc23)C(=O)N[C@@H](CCC(N)=O)C(=O)N[C@H](C(=O)O)C(C)C)NC(=O)[C@@H]2CCCN2C(=O)[C@H](CCCNC(=N)N)NC(=O)[C@H](Cc2ccc(O)cc2)NC(=O)[C@H](C(C)C)NC(=O)[C@H](CCCNC(=N)N)NC(=O)CNC(=O)[C@H](CC(C)C)NC1=O
notes: also called amino terminal-truncated form of MCH; N-terminal truncated form
In assay [1], B1 had an IC50 of 3.3 nM.

For the molecule DFDMLRCMLGRVYRPCWQV (disulfide 7-16) [melanin-concentrating hormone, MCH (synthetic human MCH)], the “release of [3H] arachidonic acid metabolite in human SLT-expressing CHO cells, EC50” value in assay [2] was determined as 0.57 nM. Moreover, in assay [1], the IC50 was around 20 nM.

As a reminder, the IC50 is the midpoint of a concentration-inhibition curve.
